Laboratory results: the supplement of paper PMC9170038

Test system: MS2 coat protein
Experiment: apparent KD of MS2 coat protein; higher = weaker reporter binding
Details: Eterna round: R107
Summary of the method: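 Apparent KD per design is the median of normalised cluster binding-curve fits. Designed RNA switches transcribed on-chip from Illumina sequencing clusters were titrated with SNAP-549-labelled MS2 coat protein in twofold steps from 0.7 or 1.5 nM to 3 µM, with 0.8–1.5 h down to 10–20 min per step. Buffer: 100 mM Tris-HCl pH 7.5, 80 mM KCl, 4 mM MgCl2, without or with constant ligand.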

[1] = input ligand: theophylline 20 uM
[2] = input ligand: theophylline 2 mM
[3] = input ligand: tryptophan 2.4 mM

Sequence	apparent KD of MS2 coat protein (input ligand: arginine 13.2 mM) [µM]	apparent KD of MS2 coat protein [1] [µM]	apparent KD of MS2 coat protein [2] [µM]	apparent KD of MS2 coat protein [3] [µM]	apparent KD of MS2 coat protein (input ligand: none) [µM]
UUUAAAUAGACGGCCGCCACUGGAAUUAAUACAUGAGGAUCACCCAUGUAGAGAGAAUAAUAAUACAGGACCGGGUCUUCAUGAA [SS Tryp B Tesla 1]	0.0272	0.0221	0.0389	–	–
AACUGGAAAAGUGAUACCAGAGACAUGAGGAUCACCCAUGUACAUGAGGAUCACCCAUGUCUCCCUUGGCAGCACAAAAGGGAGA [Exclusion Theophylline B Gf11]	0.0161	0.0376	–	0.0245	–
ACACAUGAGGAUCAUCCAUGUGCCCAUGAAGGAGCGUGGGAAACCACAGGUAGGUCGCAUGACAUGAGGAUCACCCAUGUUUAUU [#03 Exclusion - Arginine A]	0.0666	0.203	0.366	0.209	0.204
UUACAUGAGGAUCACCCAUGUCAUACAGAAGGAGCGUCACAUAAGACAGGUAGGUCGCUGUUAUUUUUUACUAUUAUAUCCUCUA [JR_Nu_ExcArginiA_Sub030]	0.025	0.0458	0.0317	0.0259	0.0308
AACGGUCGUACCGGAAUGAUCCUCAUGUAACGAGGACCGGUACGGCCGCCACUCGAUAACAUGAGGAUCACCCAUGUAAUAAUAA [|T'-M'-Trp-Ms2|_Design11]	0.0188	0.017	0.0172	–	–
ACAUGAGGAUCACCCAUGUAGCGUAGGGAAGGAGCGGAAUAGAGUCCAGGUAGGUCGCCCAUAUGAUGAUCUCACUUAUUAUCGA [#13 Same State - Arginine A]	0.0391	0.0367	0.0408	0.0229	0.0211
CGCAACCCACAUGAGGAUCACCCAUGUGAAGGAGCGCCGAAUAAGGCAGGUAGGUCGCGCAUGAAUAAAUCAUGUAGGAAGCGAA [XArg-A 6 V1&2]	0.0206	0.0326	0.0334	0.0291	0.0322
GAUUACAUGAGGAUCACCCAUGUAACUGAAGGAGCGGUAAUAAAGCCAGGUAGGUCGCGGAACAACAUGUGGAUCACCCAUGUAA [#13 Exclusion - Arginine A]	0.0337	0.0516	0.0437	0.0327	0.0435
AUACAUGAGGAUCACCCAUGUCAUACAGAAGGAGCGUCACAUAAGACAGGUAGGUCGCUGAUAAAUGGAUUAUAGUUUAUGAUUA [JR_SSArginiA_Sub016]	0.0175	0.0296	0.0203	0.0187	0.0186
ACAUGAGGAUCACCCAUGUGGAGCAGGGUACGAGGACCGGUACGGCCGCCACUCGAGCGUUAUGACGAGUGAAUGGCAACGAUGU [whbob_X-Trypto_A_V1.0]	0.00993	0.0159	0.0125	0.0121	0.0105
UCUAACAUGAGGAUCACCCAUGUGGGUUAUCGAGGACCGGUACGGCCGCCACUCGACCAGUAUAACUGGCUAGAACGUAUUUGAU [theeternabot_sameState_MS2_Trp_A_34]	0.0312	0.0536	0.0494	–	–
AGAUUCGACACGGCCGCCACUCGUGGAGGAUUACCGAGUGUCGAACAUGAGGAUCACCCAUGUACGAGGACCGGGUGUUGAGUCU [XTryp B #15]	0.0235	0.0322	0.0285	0.179	0.0273
UGUAUGUGAUUUGAUACCAGAUCAGCUGGUUAUACAUGAGGAUCACCCAUGUUACUUUGGGUCCCUUGGCAGCAAAUCGCAUACU [SSTheo B #26]	0.165	0.355	–	0.535	–
UGUAUGUGAUCUGAUACCAGCUUAAUAACAUGAGCAUCAGCCAUGUGGAGCGGAAACGCUAGCCCUUGGCAGCAGAUCGCAUACU [Denovo 11 #StaticStem #AlternativeMS2]	0.101	0.079	0.0132	0.129	0.143
UGGAGUAGGGUAAAUAGGAUAAGUACAGAAGGAGCGCGAAUAAACGCAGGUAGGUCGCUGGAACACAUGAGGAUCACCCAUGUUG [Same State Arginine A GF 24]	0.0209	0.0262	0.0178	0.0254	0.0254
UUUCUUUUCUUUCUUUCCUUUCAAACCGAAGGAGCGGGAACAAACCCAGGUAGGUCGCGGUGUGACAUGAGGAUCACCCAUGUGU [Exclusion - Arginine]	0.0655	0.106	0.085	0.0581	0.078
AUUAAAAGUUGUGAUACCAGACGAACAUGAGGAUCACCCAUGUAACUUUUAGGUGUUGUAGUCCCUUGGCAGCACUAUGUAGUUA [JR_SSTheophyB_Sub012]	0.0313	0.0492	–	0.0401	–
UGUAACAUGAGGAUCACCCAUGUGAGUGAUACCAGACUAGUGUUGGUCCCUUGGCAGCACGCUGGACGAAUGUGUAGUCUAUGCG [Same State - Theophylline A (Freestyle 18)]	0.0595	0.107	–	0.0774	–
